Measurements taken from the supplement of paper PMC10567573.

B1: PTPN9 (parent)
chain: ILFSLPPALDWDSVHVPGPHAMTI
B2: ZNF207 (parent)
chain: FQPQPVQPQQGYIPPMAQPGLPPV

Variants of: B1
Assay: protein stability index of a GFP-peptide fusion (GPS, HEK-293T) (PSI 1-6); higher = more stable
Conditions: c terminus: a fixed tail appended
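Note: lentivirally expressed fusions sorted by FACS into six bins by GFP to DsRed ratio, PSI derived from sequencing read proportions per bin multiplied by bin number.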

Variant	protein stability index
ILFSLPPALDWDSVHVPGPHAMTQ [I24Q]	2.71
ILFSLPPALDWDSVHVPGPHAMTR [I24R]	1.71
ILFSLPPALDWDSVHVPGPHAMTS [I24S]	1.57
ILFSLPPALDWDSVHVPGPHAMTT [I24T]	1.97
ILFSLPPALDWDSVHVPGPHAMTV [I24V]	2.31
ILFSLPPALDWDSVHVPGPHAMTW [I24W]	3.21
ILFSLPPALDWDSVHVPGPHAMTY [I24Y]	1.73

Variants of: B2
Assay: as above
Conditions: c terminus: a fixed tail appended

Variant	protein stability index
AQPQPVQPQQGYIPPMAQPGLPPV [F1A]	4.29
CQPQPVQPQQGYIPPMAQPGLPPV [F1C]	3.07
DQPQPVQPQQGYIPPMAQPGLPPV [F1D]	4.47
EQPQPVQPQQGYIPPMAQPGLPPV [F1E]	4.36
GQPQPVQPQQGYIPPMAQPGLPPV [F1G]	4.37
HQPQPVQPQQGYIPPMAQPGLPPV [F1H]	4.06
IQPQPVQPQQGYIPPMAQPGLPPV [F1I]	3.9
KQPQPVQPQQGYIPPMAQPGLPPV [F1K]	4.37
LQPQPVQPQQGYIPPMAQPGLPPV [F1L]	4.03
MQPQPVQPQQGYIPPMAQPGLPPV [F1M]	3.9
NQPQPVQPQQGYIPPMAQPGLPPV [F1N]	4.33
QQPQPVQPQQGYIPPMAQPGLPPV [F1Q]	4.18
RQPQPVQPQQGYIPPMAQPGLPPV [F1R]	4
SQPQPVQPQQGYIPPMAQPGLPPV [F1S]	4.38
TQPQPVQPQQGYIPPMAQPGLPPV [F1T]	3.5
VQPQPVQPQQGYIPPMAQPGLPPV [F1V]	3.91
WQPQPVQPQQGYIPPMAQPGLPPV [F1W]	3.26
YQPQPVQPQQGYIPPMAQPGLPPV [F1Y]	3.61
FCPQPVQPQQGYIPPMAQPGLPPV [Q2C]	2.18
FDPQPVQPQQGYIPPMAQPGLPPV [Q2D]	4.03
FEPQPVQPQQGYIPPMAQPGLPPV [Q2E]	3.98
FFPQPVQPQQGYIPPMAQPGLPPV [Q2F]	3.18

Variant	protein stability index
FGPQPVQPQQGYIPPMAQPGLPPV [Q2G]	3.61
FIPQPVQPQQGYIPPMAQPGLPPV [Q2I]	1.9
FKPQPVQPQQGYIPPMAQPGLPPV [Q2K]	3.54
FLPQPVQPQQGYIPPMAQPGLPPV [Q2L]	3.49
FMPQPVQPQQGYIPPMAQPGLPPV [Q2M]	3.13
FNPQPVQPQQGYIPPMAQPGLPPV [Q2N]	3.66
FRPQPVQPQQGYIPPMAQPGLPPV [Q2R]	3.46
FSPQPVQPQQGYIPPMAQPGLPPV [Q2S]	3.16
FVPQPVQPQQGYIPPMAQPGLPPV [Q2V]	2.51
FWPQPVQPQQGYIPPMAQPGLPPV [Q2W]	2.54
FYPQPVQPQQGYIPPMAQPGLPPV [Q2Y]	2.92
FQAQPVQPQQGYIPPMAQPGLPPV [P3A]	3.48
FQCQPVQPQQGYIPPMAQPGLPPV [P3C]	3.47
FQDQPVQPQQGYIPPMAQPGLPPV [P3D]	3.62
FQEQPVQPQQGYIPPMAQPGLPPV [P3E]	3.94
FQFQPVQPQQGYIPPMAQPGLPPV [P3F]	2.49
FQGQPVQPQQGYIPPMAQPGLPPV [P3G]	3.8
FQHQPVQPQQGYIPPMAQPGLPPV [P3H]	3.8
FQIQPVQPQQGYIPPMAQPGLPPV [P3I]	2.67
FQKQPVQPQQGYIPPMAQPGLPPV [P3K]	3.04
FQLQPVQPQQGYIPPMAQPGLPPV [P3L]	3.2
FQMQPVQPQQGYIPPMAQPGLPPV [P3M]	3.38

Variant	protein stability index
FQNQPVQPQQGYIPPMAQPGLPPV [P3N]	3.55
FQQQPVQPQQGYIPPMAQPGLPPV [P3Q]	3.31
FQRQPVQPQQGYIPPMAQPGLPPV [P3R]	3.25
FQSQPVQPQQGYIPPMAQPGLPPV [P3S]	3.73
FQTQPVQPQQGYIPPMAQPGLPPV [P3T]	3.95
FQVQPVQPQQGYIPPMAQPGLPPV [P3V]	3.52
FQWQPVQPQQGYIPPMAQPGLPPV [P3W]	2.26
FQYQPVQPQQGYIPPMAQPGLPPV [P3Y]	3.13
FQPCPVQPQQGYIPPMAQPGLPPV [Q4C]	3.01
FQPDPVQPQQGYIPPMAQPGLPPV [Q4D]	3.01
FQPEPVQPQQGYIPPMAQPGLPPV [Q4E]	3.58
FQPFPVQPQQGYIPPMAQPGLPPV [Q4F]	2.42
FQPGPVQPQQGYIPPMAQPGLPPV [Q4G]	2.71
FQPIPVQPQQGYIPPMAQPGLPPV [Q4I]	2.31
FQPKPVQPQQGYIPPMAQPGLPPV [Q4K]	2.92
FQPLPVQPQQGYIPPMAQPGLPPV [Q4L]	2.88
FQPMPVQPQQGYIPPMAQPGLPPV [Q4M]	2.72
FQPNPVQPQQGYIPPMAQPGLPPV [Q4N]	3.43
FQPRPVQPQQGYIPPMAQPGLPPV [Q4R]	2.78
FQPSPVQPQQGYIPPMAQPGLPPV [Q4S]	3.21
FQPVPVQPQQGYIPPMAQPGLPPV [Q4V]	3.12
FQPWPVQPQQGYIPPMAQPGLPPV [Q4W]	1.81

Variant	protein stability index
FQPYPVQPQQGYIPPMAQPGLPPV [Q4Y]	1.83
FQPQAVQPQQGYIPPMAQPGLPPV [P5A]	3.22
FQPQCVQPQQGYIPPMAQPGLPPV [P5C]	2.29
FQPQDVQPQQGYIPPMAQPGLPPV [P5D]	3.18
FQPQEVQPQQGYIPPMAQPGLPPV [P5E]	3.62
FQPQFVQPQQGYIPPMAQPGLPPV [P5F]	2.33
FQPQGVQPQQGYIPPMAQPGLPPV [P5G]	3.45
FQPQHVQPQQGYIPPMAQPGLPPV [P5H]	3.15
FQPQIVQPQQGYIPPMAQPGLPPV [P5I]	2.63
FQPQKVQPQQGYIPPMAQPGLPPV [P5K]	3.17
FQPQLVQPQQGYIPPMAQPGLPPV [P5L]	2.88
FQPQMVQPQQGYIPPMAQPGLPPV [P5M]	2.61
FQPQNVQPQQGYIPPMAQPGLPPV [P5N]	2.8
FQPQQVQPQQGYIPPMAQPGLPPV [P5Q]	2.99
FQPQRVQPQQGYIPPMAQPGLPPV [P5R]	2.58
FQPQSVQPQQGYIPPMAQPGLPPV [P5S]	3.18
FQPQTVQPQQGYIPPMAQPGLPPV [P5T]	2.62
FQPQVVQPQQGYIPPMAQPGLPPV [P5V]	2.57
FQPQWVQPQQGYIPPMAQPGLPPV [P5W]	1.62
FQPQYVQPQQGYIPPMAQPGLPPV [P5Y]	2.59
FQPQPCQPQQGYIPPMAQPGLPPV [V6C]	2.89
